Data as given in paper PMC8971491, “Conformational plasticity of the HIV-1 gp41 immunodominant region is recognized by multiple non-neutralizing antibodies” (Communications Biology, 2022).

T1: 15-mer peptide corresponding to residues 594-608 of HIV-1 gp160 (HIV-1 Consensus Subtype C Env Peptide Set) (HIV-1 consensus subtype C (stand-in: …, UniProt P04578, strain))
T1 construct: 15-mer of the HIV-1 consensus subtype C Env peptide set, corresponding to residues 594-608 of HIV-1 gp160; also called single peptide that corresponds to residues 594-608 of HIV-1 gp160; NIH HIV-1 gp41 peptide; source: bought: NIH AIDS Reagent Program, HIV-1 Consensus Subtype C Env Peptide Set (cat. No. 9499)
T1 chain: GIWGCSGKLICTTAV

B1: Fab 3D6 (Fab, V domains shown)
VH: EVQLVESGGGLVQPGRSLRLSCAASGFTFNDYAMHWVRQAPGKGLEWVSGISWDSSSIGYADSVKGRFTISRDNAKNSLYLQMNSLRAEDMALYYCVKGRDYYDSGGYFTVAFDIWGQGTMVTVSS
VL: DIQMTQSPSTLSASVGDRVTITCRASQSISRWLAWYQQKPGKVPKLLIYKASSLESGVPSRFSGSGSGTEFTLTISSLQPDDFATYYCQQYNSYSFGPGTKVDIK
notes: immunoglobulin heavy chain variable region of 3D6; Ig gamma-1 chain constant region, fused after the variable region; as a Fab only part of the constant region is present; immunoglobulin light chain variable region of 3D6; Ig kappa chain constant region, fused after the variable region; Fab; residues numbered by Kabat convention; also called patient-derived near-germline antibody fragment; …
B2: Fab F240 (Fab, V domains shown)
VH: QVQLVQSGGGVVKPGASLRLACSASGFTFTDYYMSWIRQTPGKGLQWLAYITKDGSEKKYADSLQGRFAVSRDNANNLVFLQLNTVEDDDTGVYYCARDDGYYDRSGYYGVFDLWGQGIRVTVSS
VL: EFLLTQSPDSLAVTLGETATITCRSSRNILHSLNNKNYLAWYQQRPGQAPKLLVIWASMRVSGVADRFSGSGSGTDFALTISSLQPEDAAVYYCQHYYTTHRTFGQGTRVEIR
notes: immunoglobulin heavy chain variable region of F240; Ig gamma-1 chain constant region, fused after the variable region; as a Fab only part of the constant region is present; immunoglobulin light chain variable region of F240; Ig kappa chain constant region, fused after the variable region; Fab; residues numbered by Kabat convention; also called anti-gp41 Fab F240; source: HEK293T, transiently …

Target: T1, 15-mer peptide corresponding to …
Experiment: ELISA; 15-mer peptides adsorbed to microtiter plates at 10 ug/mL in 100 mM sodium bicarbonate pH 9.3 overnight at 4 C; Fab at 1 ug/mL in PBST-Milk, 1 hour at room temperature; goat anti-human HRP, absorbance at 450 nm
Conditions: both partners purified

| Binder | binding result |
| --- | --- |
| B1 | binds |
| B2 | binds |
